The target in assay [1] is T1, FMDV Asia 1 virus-like particles (VLPs) (Foot-and-mouth disease virus serotype …, UniProt A2I7M2).
T1 construct: also called Asia 1 VLPs antigen; recombinant VLPs; copies: + +
In words: SPR. The note with it: both partners purified.

Assay [2] concerns the target T2, FMDV Asia 1 virions in infected BHK-21 cells (Foot-and-mouth disease virus serotype …, UniProt A2I7M2, strain).
T2 construct: also called FMD virions; FMD Asia 1 virions; copies: + + +
In words: immunostaining of cells or tissue. The note with it: one partner purified.

B1: sdAb-C6 (VHH)
VHH: HVQLVESGGGSVQAGGSLRLSCTYSVYTYSSDSMAWFRQAPGKEREGVAGIYIGSGSTLYADSVKGRFTISQDKAKNTVYLQMNSLKPEDTALYYCAAGGNWYDGVLNVERAFAYWGQGTQVTVSS
notes: also called clone 6; sdAb-6
B1: in assay [1], the Kd (usually the free concentration of one partner at which half of the binding sites on the other are occupied at equilibrium, for simple one-to-one binding) is 0.44 nM; the koff (as a rule, the first-order rate constant of dissociation) stood at 0.000703 s⁻¹; the kon (commonly the second-order rate constant of association) is 1.6e+06 M⁻¹ s⁻¹.

B2: Alexa Fluor-488-conjugated-sdAb-C6 (VHH)
VHH: HVQLVESGGGSVQAGGSLRLSCTYSVYTYSSDSMAWFRQAPGKEREGVAGIYIGSGSTLYADSVKGRFTISQDKAKNTVYLQMNSLKPEDTALYYCAAGGNWYDGVLNVERAFAYWGQGTQVTVSS
notes: also called AF488-C6; AF488-C6 probe
Turning to B2, the binding result in assay [2] is recorded as “binds”.

B3: QDs-C6 probe (VHH)
VHH: HVQLVESGGGSVQAGGSLRLSCTYSVYTYSSDSMAWFRQAPGKEREGVAGIYIGSGSTLYADSVKGRFTISQDKAKNTVYLQMNSLKPEDTALYYCAAGGNWYDGVLNVERAFAYWGQGTQVTVSS
notes: also called QD-sdAb probe; QDs-sdAb
B3: the binding result in assay [2] is given as “binds”.
